Results taken from US20060286609A1 (BIOCHECK, published 2006).
Positions count from the first letter of the chain named.

T1: Mouse Id2: Histidine (mouse, UniProt P41136 1-134, limits assumed)
T1 construct: E. coli fusion protein (vector pGW07); also called m-Id2: His; not shown: His-tag
T1 sequence (looked up): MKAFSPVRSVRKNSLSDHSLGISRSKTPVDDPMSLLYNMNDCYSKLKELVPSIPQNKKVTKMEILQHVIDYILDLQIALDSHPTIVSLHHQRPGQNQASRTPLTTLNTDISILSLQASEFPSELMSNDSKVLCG

T2: Mouse Id3: Histidine (mouse, UniProt P41133 1-119, limits assumed)
T2 construct: E. coli fusion protein (vector pGW07); also called m-Id3: His; not shown: His-tag
T2 sequence (looked up): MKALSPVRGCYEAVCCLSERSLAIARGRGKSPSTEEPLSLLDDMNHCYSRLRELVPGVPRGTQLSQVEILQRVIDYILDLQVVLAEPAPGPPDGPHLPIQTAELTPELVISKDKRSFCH

T3: Mouse Id4: Histidine (mouse, UniProt P41139 1-161, limits assumed)
T3 construct: E. coli fusion protein (vector pGW07); also called m-Id4: His; not shown: His-tag
T3 sequence (looked up): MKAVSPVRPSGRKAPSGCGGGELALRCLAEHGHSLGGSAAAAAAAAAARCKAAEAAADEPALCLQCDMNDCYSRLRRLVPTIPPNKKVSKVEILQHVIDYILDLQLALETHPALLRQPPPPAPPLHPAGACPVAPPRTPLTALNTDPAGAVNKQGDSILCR

T4: Human Id4: Histidine (human, UniProt P47928 1-161, limits assumed)
T4 construct: E. coli fusion protein (vector pGW07); also called h-Id4: His; not shown: His-tag
T4 sequence (looked up): T3 sequence (looked up) with L125H, A130T, V133A

T5: Human Id2: Histidine (human, UniProt Q02363 1-134, limits assumed)
T5 construct: E. coli fusion protein (vector pGW07); also called h-Id2: His; not shown: His-tag
T5 sequence (looked up): T1 sequence (looked up) with T60S, V131A

T6: Mouse Id1: Histidine (mouse, UniProt P20067-2 1-148)
T6 construct: E. coli fusion protein (vector pGW07); also called m-Id1-His; not shown: His-tag
T6 sequence: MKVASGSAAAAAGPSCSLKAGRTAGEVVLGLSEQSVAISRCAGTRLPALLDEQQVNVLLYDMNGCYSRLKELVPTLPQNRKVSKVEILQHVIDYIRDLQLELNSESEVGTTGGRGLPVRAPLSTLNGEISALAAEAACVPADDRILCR

T7: Human Id3: Histidine (human, UniProt Q02535 1-119, limits assumed)
T7 construct: E. coli fusion protein (vector pGW07); also called h-Id3: His; not shown: His-tag
T7 sequence (looked up): T2 sequence (looked up) with S31G, S33A, T34A, K112N

B1: rabbit monoclonal anti-mouse Id1, clone #BCH-1/#37-2 (antibody, V domains shown)
VH: QSVEESGGRLVTPGTPLTLTCKVSGFDINSYAMDWFRQAPGKGLEWIGMMSTRGNTYYTSWAKGRFTISKTSSTTVDLKMTSLTTEDTATYFCARGGLWGPGTLVTVSS
VL: RVLTQTASPVSAAVGGTVTINCQASQSVYNGNRLGWYQLKPGQSPKELIHDASTLASGVPSRFRGSGSGTQFTLTINDVQCDDAATYYCVGSYACSTGDCNVFGGGTEVVVK
notes: Rabbit IgG from hybridoma, Protein G purified; also called m Id1 MoAb 37-2; Rabbit Monoclonal Anti-Mouse Id1 (#37-2)

Assays:
Mouse Id2: Histidine = target: T1, Mouse Id2: Histidine; test: ELISA, coated antigen; relative to human Id1
Mouse Id3: Histidine = target: T2, Mouse Id3: Histidine; test: ELISA, coated antigen; relative to human Id1
Mouse Id4: Histidine = target: T3, Mouse Id4: Histidine; test: ELISA, coated antigen; relative to human Id1
Human Id4: Histidine = target: T4, Human Id4: Histidine; test: ELISA, coated antigen; relative to human Id1
Human Id2: Histidine [1] = target: T5, Human Id2: Histidine; test: ELISA, coated antigen; relative to human Id1
Mouse Id1: Histidine [2] = target: T6, Mouse Id1: Histidine; test: ELISA, coated antigen; relative to human Id1
Human Id3: Histidine [3] = target: T7, Human Id3: Histidine; test: ELISA, coated antigen; relative to human Id1
[4] = target: Human Id1: Histidine (human) (UniProt P41134); test: ELISA, coated antigen; reference human Id1
Human Id2: Histidine [5] = target: T5, Human Id2: Histidine; test: ELISA, coated antigen, Ab 0 ug/ml (blank)
Method: (§1) Incubate plates at 2-8° C. overnight (16-24 hours). [0145] 11. Shake off the BSA solution. [0146] 12. Dispense 250 μL of 2.5% sucrose solution into each well. [0147] 13. Incubate plates at 2-8° C. for 4 hours. [0148] 14. Shake off sucrose solution. [0149] 15. Dry in vacuum at room temperature overnight. Screening Method [0150] 1. Dispense 100 μL of antibody diluent, diluted rabbit polyclonal anti-Id1 into appropriate wells. […] 2. Incubate at room temperature with mechanical shaking at 750 rpm for 90 minutes. [0152] 3. Remove the incubation mixture by flicking plate content into an appropriate waste container, followed by rinsing the wells 5 times with distilled water. […] 4. Strike the wells sharply onto absorbent paper or paper towels to remove all residual water droplets. [0154] 5. Dispense 100 μL of Goat Anti-Rabbit IgG-HRP Conjugate Reagent into each well. Gently mix for 5 seconds. [0155] 6. Incubate at room temperature with mechanical shaking at 750 rpm for 90 minutes. […] 7. Repeat procedures 3 and 4. [0157] 8. Dispense 100 μL of TMB Reagent into each well. Gently mix for 5 seconds. [0158] 9. Incubate at room temperature with mechanical shaking at 750 rpm for 20 minutes. [0159] 10. Add 100 μL of Stop Solution (1N HCl) into each well. [0160] 11. Gently mix for 10 seconds to ensure a complete mixing. […] 12. Read optical density (absorbance) at 450 nm. Results from this assay were used to select the rabbit sera with the highest antibodies titer that selectively reacts with mouse Id1 or human Id1 or both.
(§2) A comparison was carried out between the reactivity of the rabbit monoclonal anti-mouse Id1, clone #BCH-1/#37-2, of this invention and the mouse monoclonal anti-mouse/human Id1 from BD Pharmingen with the following antigens prepared in Example 5: mouse Id1:His, human Id1:His, human Id2:His, human Id3:His, and GST. These antigens and protein were used to coat the wells.
(§3) Materials and methods were those described in Example 9 except (a) Pharmingen's mouse monoclonal anti-mouse Id1 was used in addition to the rabbit monoclonal anti-mouse Id1 (Example 10), and (b) goat anti-mouse IgG-HRP conjugate was used to process the wells treated with the Pharmingen monoclonal antibody and polyclonal goat anti-rabbit IgG-HRP conjugate was used to process wells treated with rabbit monoclonal anti-mouse Id1.

Mouse Id1: Histidine [6] = target: T6, Mouse Id1: Histidine; test: ELISA, coated antigen, Ab 0 ug/ml (blank)
Method: as §1, §2, §3

Human Id3: Histidine [7] = target: T7, Human Id3: Histidine; test: ELISA, coated antigen, Ab 0 ug/ml (blank)
Method: as §1, §2, §3

Chain of Human Id1: Histidine (human) (P41134 whole entry): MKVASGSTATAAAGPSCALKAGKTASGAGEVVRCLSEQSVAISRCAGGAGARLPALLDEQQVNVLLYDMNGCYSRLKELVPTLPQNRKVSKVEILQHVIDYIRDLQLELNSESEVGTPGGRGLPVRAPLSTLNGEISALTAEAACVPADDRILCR

Molecule	Cross-reactivity (%) (Mouse Id2: Histidine)	Cross-reactivity (%) (Mouse Id3: Histidine)	Cross-reactivity (%) (Mouse Id4: Histidine)	Cross-reactivity (%) (Human Id4: Histidine)	Cross-reactivity (%) (Human Id2: Histidine [1])	Cross-reactivity (%) (Mouse Id1: Histidine [2])	Cross-reactivity (%) (Human Id3: Histidine [3])	Cross-reactivity (%) [4]	A450 (Human Id2: Histidine [5])	A450 (Mouse Id1: Histidine [6])	A450 (Human Id3: Histidine [7])
rabbit monoclonal anti-human Id1, clone #BCH-2/#5-3 (antibody)	< 1%	< 1%	< 1%	< 1%	< 1%	< 1%	< 1%	100%	–	–	–
B1	–	–	–	–	–	–	–	–	0.045 A450	0.047 A450	0.046 A450
